Experimental data from US6174855A, “Pharmaceutical compositions comprising thrombin inhibitors and their use in the control of wound healing processes” (AstraZeneca AB, priority 1996, dated 2001).

Test system: fibrin-related adhesions between the stomach and the liver, the intestines and the omentum
Assay: Acetic acid injury to the serosal surface of the rat stomach: formation of adhesions
Format: in vivo
Details: minipump in abdominal cavity, outlet free and open; wound covered by chitosan membrane; up to 10 days
Method: The serosal surface of the stomach of an adult anaesthetised rat was exposed in an area of 7 mm diameter to 80% acetic acid over 60 seconds. After rinsing with buffered saline solution, an osmotic minipump (Alza 2001, volume about 220 μL; pumping rate about 1 μL/h; Alza Corp.; Palo Alto, Calif., USA; prefilled with a solution of the thrombin inhibitor melagatran, 2-100 μg/mL) was implanted into the peritoneal cavity, with the outlet of the pump kept open, and delivered its content into the abdominal cavity. The wounded area was covered by a chitosan membrane or, in an alternative experiment, a gel, having a diameter several millimeters larger than that of the injured area.
The serosal surface of the stomach of an adult, anaesthetised rat was exposed in an area of 7 mm diameter to 80% acetic acid over 60 seconds. After rinsing with buffered saline, the wounded area was covered by a chitosan membrane or, in an alternative experiment, a gel, having a diameter several millimeters larger than the injured area. An osmotic minipump (Alza 2001, volume about 220 μL; pumping rate about 1 μL/h; Alza Corp.; Palo Alto, Calif., USA; prefilled with a solution of the thrombin inhibitor melagatran, 2-100 μg/mL) was implanted subcutaneously, with the outlet of the pump kept open, delivering its content into the adjacent tissue. […]

B1: Actilyse: recombinant human tissue-plasminogen-activator; Boehringer Ingelheim (protein, UniProt P00750 36-562, looked up)
Tissue-type plasminogen …: SYQVICRDEKTQMIYQQHQSWLRPVLRSNRVEYCWCNSGRAQCHSVPVKSCSEPRCFNGGTCQQALYFSDFVCQCPEGFAGKCCEIDTRATCYEDQGISYRGTWSTAESGAECTNWNSSALAQKPYSGRRPDAIRLGLGNHNYCRNPDRDSKPWCYVFKAGKYSSEFCSTPACSEGNSDCYFGNGSAYRGTHSLTESGASCLPWNSMILIGKVYTAQNPSAQALGLGKHNYCRNPDGDAKPWCHVLKNRRLTWEYCDVPSCSTCGLRQYSQPQFRIKGGLFADIASHPWQAAIFAKHRRSPGERFLCGGILISSCWILSAAHCFQERFPPHHLTVILGRTYRVVPGEEEQKFEVEKYIVHKEFDDDTYDNDIALLQLKSDSSRCAQESSVVRTVCLPPADLQLPDWTECELSGYGKHEALSPFYSERLKEAHVRLYPSSRCTSQHLLNRTVTDNMLCAGDTRSGGPQANLHDACQGDSGGPLVCLNDGRMTLVGIISWGLGCGQKDVPGVYTKVTNYLDWIRDNMRP
  fibrin network or strands of newly formed granulation tissue connecting the stomach with the liver, the intestines and the omentum: No fibrin network, nor any strands of newly formed granulation tissue, could be detected
